Data from publication PMC12085581, “Auricular malformations are driven by copy number variations in a hierarchical enhancer cluster and a dominant enhancer recapitulates human pathogenesis”.

Target: T1, MEIS1 (human, UniProt O00470 1-390)
T1 sequence: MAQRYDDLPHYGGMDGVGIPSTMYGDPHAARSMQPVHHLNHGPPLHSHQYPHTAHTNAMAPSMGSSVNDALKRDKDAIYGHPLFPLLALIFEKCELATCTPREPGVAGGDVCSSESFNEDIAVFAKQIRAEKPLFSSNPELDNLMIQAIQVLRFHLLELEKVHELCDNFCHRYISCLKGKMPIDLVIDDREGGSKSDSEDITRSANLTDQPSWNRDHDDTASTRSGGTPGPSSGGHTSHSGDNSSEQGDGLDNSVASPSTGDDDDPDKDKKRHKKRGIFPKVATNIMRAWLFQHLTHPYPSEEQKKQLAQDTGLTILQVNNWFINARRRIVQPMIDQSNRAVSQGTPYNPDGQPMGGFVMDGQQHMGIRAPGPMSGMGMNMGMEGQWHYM
Assay: EMSA; EMSA: LightShift Chemiluminescent EMSA kit per manufacturer (buffer not given); protein stock in 50 mM Tris, 200 mM NaCl, 10 mM 2-mercaptoethanol, 10% glycerol, pH 7.5. Pull-down: streptavidin beads, 1 h at 4 C, PBS washes
Details: protein: recombinant; tags: His6-MBP-TEV, tag removed by TEV protease; label: 5' biotin on both strands; blunt

B1: probe1 (hEC1 MEIS1 site) (dsDNA)
DNA 1: GGAAATGCGGCCCATCAATCATAAACTGATTACAAATTCGTCA
DNA 2: TGACGAATTTGTAATCAGTTTATGATTGATGGGCCGCATTTCC
  binding result: binds
